Data from the supplement of paper PMC10567573.

B1: TSN (parent)
chain: FLAAEQDIREEIRKVVQSLEQTAR
B2: BRF1 (parent)
chain: CTACGSVLEDNIIVSEVQFVESSG

Variants of: B1
Assay: protein stability index of a GFP-peptide fusion (GPS, HEK-293T) (PSI 1-6); higher = more stable
Conditions: c terminus: a fixed tail appended
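Further: lentivirally expressed fusions sorted by FACS into six bins by GFP to DsRed ratio, PSI derived from sequencing read proportions per bin multiplied by bin number.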

Protein stability index, by site and new letter:
A3: H 2.1, C 1.36, F 2.02, I 1.87, G 1.87, K 2.13, D 2.38, E 2.42
F1: G 2.26, K 2.41, L 2.36, Y 2.04, R 2.79, I 2.51, V 2.62, T 2.72, A 2.35, Q 2.23, W 1.85, M 2.39, N 3.17, D 2.49, H 2.5, E 2.45, S 2.51, P 2.78, C 1.9
L2: N 2.38, V 1.91, P 2.68, Y 1.85, H 1.75, M 1.96, D 1.73, K 2.11, R 2.4, C 1.82, F 1.71, Q 2.03, W 2.02, I 1.66, S 1.91, E 1.68, G 3.19, A 2.19, T 2.08

Variants of: B2
Assay: as above
Conditions: c terminus: a fixed tail appended

Protein stability index: each site, then its substitutions
E21: A 2.58, S 2.54, V 2.82, C 3.27, P 3.38, K 2.94, D 3.19, Y 1.77, G 3.58, W 2.05, T 2.34, Q 3.02, I 2.28, N 3.51, R 3.53, M 2.4, F 1.87, H 2.88, L 2.7
Q18: K 3.27, S 2.44, Y 1.47, P 3.1, R 2.42, M 2.36, V 2.01, W 1.75, T 2.31, L 2.4, N 2.77, I 1.82
V20: R 3.18, S 4.23, H 3.23, P 3.48, I 3.11, M 2.55, N 2.94, G 3.6, A 3.65, Q 3.35, K 3.44, T 3.58, Y 2.44, L 3.97, D 4.52, E 3.88, C 2.21, F 3.15
F19: S 4.59, A 5.26, H 4.36, Q 3.76, R 4.42, T 3.98, G 4.32, N 4.33, W 2.88, L 3.49, V 3.11, M 3.63, Y 3.49, P 4.2, C 2.43, I 2.87, K 4.19, E 4.27, D 4.53
S23: H 3.24, I 2.88, L 3.03, M 2.81, K 4.04, W 2.53, N 3.15, A 3.14, C 2.9, E 2.91, Q 3.55, T 3.17, F 2.42, Y 2.51, V 2.63, P 2.72
S22: Y 2.38, V 2.75, Q 3.38, F 2.32, R 2.18, E 3.83, P 3.39, I 1.52, C 1.88, M 2.44, W 2.66, H 3.06, A 3.73, G 2.97, L 2.09, T 2.33, D 3.7, N 3.07, K 3.81
G24: H 2.25, K 3.25, D 3.38, R 2.64, W 2.09, Y 2.89, E 3.58, F 2.03, P 3.28, N 3.01, I 3.06, M 3.13, L 3.01, V 2.45, S 3.08, C 3.09, Q 2.95, A 3.67
